From article PMC3107500 (2011)

T1: PITPNM3 (Homo sapiens, UniProt Q9BZ71)
T1 chain: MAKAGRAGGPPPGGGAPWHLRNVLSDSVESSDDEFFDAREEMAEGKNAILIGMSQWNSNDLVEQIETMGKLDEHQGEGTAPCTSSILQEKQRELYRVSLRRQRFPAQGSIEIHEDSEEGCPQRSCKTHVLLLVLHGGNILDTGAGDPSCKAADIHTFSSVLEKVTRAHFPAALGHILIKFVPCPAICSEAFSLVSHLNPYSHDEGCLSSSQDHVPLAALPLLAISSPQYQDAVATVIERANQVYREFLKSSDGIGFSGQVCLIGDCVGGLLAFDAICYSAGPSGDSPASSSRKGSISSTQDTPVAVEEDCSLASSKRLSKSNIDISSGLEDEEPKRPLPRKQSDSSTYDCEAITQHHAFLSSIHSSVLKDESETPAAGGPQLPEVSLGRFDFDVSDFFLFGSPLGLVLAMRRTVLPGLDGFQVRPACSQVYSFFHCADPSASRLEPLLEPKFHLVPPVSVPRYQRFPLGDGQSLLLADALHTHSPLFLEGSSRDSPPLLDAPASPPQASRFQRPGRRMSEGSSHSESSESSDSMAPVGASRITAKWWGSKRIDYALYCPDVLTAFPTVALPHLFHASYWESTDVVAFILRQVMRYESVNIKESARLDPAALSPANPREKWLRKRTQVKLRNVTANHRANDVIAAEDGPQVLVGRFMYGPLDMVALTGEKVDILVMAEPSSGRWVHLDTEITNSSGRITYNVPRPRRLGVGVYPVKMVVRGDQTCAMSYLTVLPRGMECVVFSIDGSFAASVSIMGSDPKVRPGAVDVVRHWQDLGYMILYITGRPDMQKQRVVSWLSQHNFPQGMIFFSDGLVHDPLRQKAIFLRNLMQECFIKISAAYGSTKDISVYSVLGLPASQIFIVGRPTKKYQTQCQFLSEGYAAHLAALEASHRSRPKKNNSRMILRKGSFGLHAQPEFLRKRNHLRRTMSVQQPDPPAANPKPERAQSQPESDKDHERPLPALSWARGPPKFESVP


Target: T1, PITPNM3
Assay: 125I-CCL18 radioligand competition binding on PITPNM3-transfected HEK293 cells

Kd [µM]	Binder
0.277	CCL3 (protein) SLAADTPTACCFSYTSRQIPQNFIADYFETSSQCSKPGVIFLTKRSRQVCADPSEEWVQKYVSDLELSA
0.00517	CCL18 (protein) GTNKELCCLVYTSWQIPQKFIVDYSETSPQCPKPGVILLTKRGRQICADPNKKWVQKYISDLKLNA
0.833	CCL4 (protein) APMGSDPPTACCFSYTARKLPRNFVVDYYETSSLCSQPAVVFQTKRSKQVCADPSESWVQEYVYDLELN
